Experimental data from the supplement of paper PMC9233669.
Variants at the floor of the assay were thinned out.

Assays:
biotinyl-Phe-oxazolone = experiment: self-aminoacylation, catalytic enhancement (BFO) (fold over background); higher = more active; k-Seq, kA / k0A0; sequences stand for … in GGGAAUGGAUCCACAUCUACGAAUUC…UUCACUGCAGACUUGACGAAGCUG
Summary of the method: (§1)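 Mutagenized RNA pools with a 21-nt variable region (0.43 μM) reacted with each biotinyl-aminoacyl-oxazolone at 2–1250 μM. Reactions ran in 50 μL HEPES/NaCl/KCl/MgCl2/CaCl2 buffer with 5% acetonitrile, pH 6.9–7.0, for 90 minutes at room temperature. Streptavidin-captured RNA was quantified by triplicate qPCR and Illumina sequencing, and per-sequence fraction reacted was fit to a pseudo-first-order model with 1000 bootstraps. Catalytic enhancement is median kA divided by the uncatalyzed rate, the low-activity peak of a bimodal Gaussian fit.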

biotinyl-Ile-oxazolone = experiment: self-aminoacylation, catalytic enhancement (BIO) (fold over background); higher = more active; k-Seq, kA / k0A0; sequences stand for … in GGGAAUGGAUCCACAUCUACGAAUUC…UUCACUGCAGACUUGACGAAGCUG
Summary of the method: as §1

biotinyl-Met-oxazolone = experiment: self-aminoacylation, catalytic enhancement (BMO) (fold over background); higher = more active; k-Seq, kA / k0A0; sequences stand for … in GGGAAUGGAUCCACAUCUACGAAUUC…UUCACUGCAGACUUGACGAAGCUG
Summary of the method: as §1

biotinyl-Val-oxazolone = experiment: self-aminoacylation, catalytic enhancement (BVO) (fold over background); higher = more active; k-Seq, kA / k0A0; sequences stand for … in GGGAAUGGAUCCACAUCUACGAAUUC…UUCACUGCAGACUUGACGAAGCUG
Summary of the method: as §1

biotinyl-Leu-oxazolone = experiment: self-aminoacylation, catalytic enhancement (BLO) (fold over background); higher = more active; k-Seq, kA / k0A0; sequences stand for … in GGGAAUGGAUCCACAUCUACGAAUUC…UUCACUGCAGACUUGACGAAGCUG
Summary of the method: as §1

biotinyl-Trp-oxazolone = experiment: self-aminoacylation, catalytic enhancement (BWO) (fold over background); higher = more active; k-Seq, kA / k0A0; sequences stand for … in GGGAAUGGAUCCACAUCUACGAAUUC…UUCACUGCAGACUUGACGAAGCUG
Summary of the method: as §1

Row | Sequence | self-aminoacylation (biotinyl-Phe-oxazolone) | self-aminoacylation (biotinyl-Ile-oxazolone) | self-aminoacylation (biotinyl-Met-oxazolone) | self-aminoacylation (biotinyl-Val-oxazolone) | self-aminoacylation (biotinyl-Leu-oxazolone) | self-aminoacylation (biotinyl-Trp-oxazolone)
1 | CCACACUCGAAGCAAUCGGUC [Fam1B.1 aminoacylation ribozyme variant] | 1.07 | 1.2 | 1.1 | 1.11 | 0.764 | 0.864
2 | CCACACUGCAAGCAAUCAGUC [Fam1B.1 aminoacylation ribozyme variant] | 1.1 | 0.79 | 0.584 | 0.741 | 0.852 | 0.551
3 | CCACACUGCAGGCAAUCGGUC [Fam1B.1 aminoacylation ribozyme variant] | 5.92 | 1.44 | 1.76 | 2.17 | 1.57 | 1.38
4 | CCACACUGCAUGCAAUCGGUC [Fam1B.1 aminoacylation ribozyme variant] | 0.714 | 0.875 | 0.803 | 0.857 | 0.507 | 0.659
5 | CCACACUGGAAGCAAUCGGUC [Fam1B.1 aminoacylation ribozyme variant] | 0.508 | 0.881 | 0.78 | 1.08 | 0.737 | 0.543
6 | CCACACUUAAAGCAAACGGUC [Fam1B.1 aminoacylation ribozyme variant] | 0.924 | 0.685 | 0.502 | 0.765 | 0.616 | 0.578
7 | CCACACUUAAAGCAAUAGGUC [Fam1B.1 aminoacylation ribozyme variant] | 1.24 | 0.67 | 0.509 | 0.913 | 0.662 | 0.592
8 | CCACACUUAAAGCAAUCUGUC [Fam1B.1 aminoacylation ribozyme variant] | 0.686 | 0.463 | 0.391 | 0.676 | 0.414 | 0.349
9 | CCACACUUCAAACAAACGGUC [Fam1B.1 aminoacylation ribozyme variant] | 0.66 | 0.692 | 0.626 | 0.697 | 0.598 | 0.471
10 | CCACACUUCAAACAAGCGGUC [Fam1B.1 aminoacylation ribozyme variant] | 0.971 | 0.922 | 0.68 | 0.746 | 0.728 | 0.603
11 | CCACACUUCAAACAAUCGGUC [Fam1B.1 aminoacylation ribozyme variant] | 102 | 1.38 | 1.46 | 1.53 | 2.32 | 47
12 | CCACACUUCAACCAAUCCGUC [Fam1B.1 aminoacylation ribozyme variant] | 1.33 | 1.07 | 0.672 | 0.867 | 0.784 | 0.919
13 | CCACACUUCAACCAAUCGGAC [Fam1B.1 aminoacylation ribozyme variant] | 2.28 | 0.897 | 0.789 | 1.02 | 0.981 | 1.26
14 | CCACACUUCAACCAAUCGGUG [Fam1B.1 aminoacylation ribozyme variant] | 4.06 | 3.05 | 3.66 | 2.91 | 6.37 | 5.38
15 | CCACACUUCAACCAUUCGGUC [Fam1B.1 aminoacylation ribozyme variant] | 6.93 | 1.51 | 1.52 | 1.35 | 1.25 | 1.98
16 | CCACACUUCAACGAAUCGGUC [Fam1B.1 aminoacylation ribozyme variant] | 11.2 | 0.873 | 1.03 | 1.09 | 0.962 | 9.08
17 | CCACACUUCAAGAAAUCGGAC [Fam1B.1 aminoacylation ribozyme variant] | 0.823 | 0.898 | 0.663 | 0.685 | 0.572 | 0.393
18 | CCACACUUCAAGAUAUCGGUC [Fam1B.1 aminoacylation ribozyme variant] | 0.633 | 0.774 | 0.624 | 0.795 | 0.736 | 0.657
19 | CCACACUUCAAGCAAACAGUC [Fam1B.1 aminoacylation ribozyme variant] | 1.09 | 0.816 | 0.609 | 0.757 | 0.674 | 0.375
20 | CCACACUUCAAGCAAACGGUU [Fam1B.1 aminoacylation ribozyme variant] | 1.41 | 1.32 | 1.25 | 1.59 | 1.34 | 0.973
21 | CCACACUUCAAGCAACCGGAC [Fam1B.1 aminoacylation ribozyme variant] | 0.734 | 1.15 | 0.839 | 1.07 | 0.602 | 0.606

Row | Sequence | self-aminoacylation (biotinyl-Phe-oxazolone) | self-aminoacylation (biotinyl-Ile-oxazolone) | self-aminoacylation (biotinyl-Met-oxazolone) | self-aminoacylation (biotinyl-Val-oxazolone) | self-aminoacylation (biotinyl-Leu-oxazolone) | self-aminoacylation (biotinyl-Trp-oxazolone)
22 | CCACACUUCAAGCAAGCUGUC [Fam1B.1 aminoacylation ribozyme variant] | 0.716 | 0.504 | 0.451 | 0.565 | 0.404 | 0.346
23 | CCACACUUCAAGCAAUACGUC [Fam1B.1 aminoacylation ribozyme variant] | 1.36 | 0.705 | 0.457 | 0.925 | 0.563 | 0.556
24 | CCACACUUCAAGCAAUCAGCC [Fam1B.1 aminoacylation ribozyme variant] | 3.01 | 1.04 | 0.884 | 1.72 | 1.51 | 2.26
25 | CCACACUUCAAGCAAUCAGUA [Fam1B.1 aminoacylation ribozyme variant] | 1.17 | 0.983 | 0.861 | 0.842 | 0.899 | 0.842
26 | CCACACUUCAAGCAAUCAGUU [Fam1B.1 aminoacylation ribozyme variant] | 2.42 | 1.15 | 0.802 | 1.29 | 0.925 | 1.12
27 | CCACACUUCAAGCAAUCAUUC [Fam1B.1 aminoacylation ribozyme variant] | 1.64 | 0.649 | 0.539 | 0.671 | 0.56 | 0.686
28 | CCACACUUCAAGCAAUCCCUC [Fam1B.1 aminoacylation ribozyme variant] | 0.896 | 1.04 | 0.846 | 1.15 | 0.729 | 1.35
29 | CCACACUUCAAGCAAUCCGUC [Fam1B.1 aminoacylation ribozyme variant] | 1.34 | 0.894 | 0.659 | 1.01 | 0.664 | 0.828
30 | CCACACUUCAAGCAAUCGCUA [Fam1B.1 aminoacylation ribozyme variant] | 1.05 | 1.41 | 1.22 | 1.94 | 1.44 | 1.27
31 | CCACACUUCAAGCAAUCGCUG [Fam1B.1 aminoacylation ribozyme variant] | 0.653 | 1.22 | 1.13 | 1.12 | 0.928 | 0.872
32 | CCACACUUCAAGCAAUCUAUC [Fam1B.1 aminoacylation ribozyme variant] | 0.891 | 0.557 | 0.422 | 0.683 | 0.533 | 0.287
33 | CCACACUUCAAGCAAUCUGUG [Fam1B.1 aminoacylation ribozyme variant] | 0.656 | 0.514 | 0.547 | 0.635 | 0.657 | 0.383
34 | CCACACUUCAAGCAAUUGAUC [Fam1B.1 aminoacylation ribozyme variant] | 0.853 | 0.573 | 0.368 | 0.538 | 0.536 | 0.518
35 | CCACACUUCAAGCACUCGAUC [Fam1B.1 aminoacylation ribozyme variant] | 0.872 | 0.604 | 0.43 | 0.713 | 0.546 | 0.436
36 | CCACACUUCAAGCACUCGGGC [Fam1B.1 aminoacylation ribozyme variant] | 13.2 | 2.58 | 3.49 | 3.61 | 2.62 | 3.37
37 | CCACACUUCAAGCACUCGGUC [Fam1B.1 aminoacylation ribozyme variant] | 0.887 | 0.855 | 0.777 | 0.996 | 0.757 | 0.733
38 | CCACACUUCAAGCACUGGGUC [Fam1B.1 aminoacylation ribozyme variant] | 0.974 | 0.807 | 0.66 | 1.1 | 0.971 | 1.03
39 | CCACACUUCAAGCAUGCGGUC [Fam1B.1 aminoacylation ribozyme variant] | 0.814 | 1.41 | 1.57 | 2.27 | 1.62 | 2.22
40 | CCACACUUCAAGCAUUCGAUC [Fam1B.1 aminoacylation ribozyme variant] | 1.11 | 0.664 | 0.629 | 0.856 | 0.577 | 0.748
41 | CCACACUUCAAGCAUUCGCUC [Fam1B.1 aminoacylation ribozyme variant] | 2.04 | 2.27 | 2.42 | 2.88 | 2.41 | 2.64
42 | CCACACUUCAAGCAUUCGGAC [Fam1B.1 aminoacylation ribozyme variant] | 0.829 | 1.35 | 0.977 | 1.29 | 0.681 | 0.71
